We go through five substances from US20030186334A1, “KTS-disintegrins” (Temple University - Of the Commonwealth System of Higher …, priority 2001, published 2003).

One experiment deals with α6β1 integrin (UniProt P23229). The experiment is described as follows: inhibition of adhesion of α6K562 cells to laminin.
Experiment [1] deals with human α1β1 integrin (human) (UniProt P56199). As to the kind of experiment: inhibition of adhesion of α1K562 cells to immobilised collagen IV.

Some results are limits rather than exact numbers.

Chain of α6β1 integrin (P23229 24-1130, chain 1 of 2): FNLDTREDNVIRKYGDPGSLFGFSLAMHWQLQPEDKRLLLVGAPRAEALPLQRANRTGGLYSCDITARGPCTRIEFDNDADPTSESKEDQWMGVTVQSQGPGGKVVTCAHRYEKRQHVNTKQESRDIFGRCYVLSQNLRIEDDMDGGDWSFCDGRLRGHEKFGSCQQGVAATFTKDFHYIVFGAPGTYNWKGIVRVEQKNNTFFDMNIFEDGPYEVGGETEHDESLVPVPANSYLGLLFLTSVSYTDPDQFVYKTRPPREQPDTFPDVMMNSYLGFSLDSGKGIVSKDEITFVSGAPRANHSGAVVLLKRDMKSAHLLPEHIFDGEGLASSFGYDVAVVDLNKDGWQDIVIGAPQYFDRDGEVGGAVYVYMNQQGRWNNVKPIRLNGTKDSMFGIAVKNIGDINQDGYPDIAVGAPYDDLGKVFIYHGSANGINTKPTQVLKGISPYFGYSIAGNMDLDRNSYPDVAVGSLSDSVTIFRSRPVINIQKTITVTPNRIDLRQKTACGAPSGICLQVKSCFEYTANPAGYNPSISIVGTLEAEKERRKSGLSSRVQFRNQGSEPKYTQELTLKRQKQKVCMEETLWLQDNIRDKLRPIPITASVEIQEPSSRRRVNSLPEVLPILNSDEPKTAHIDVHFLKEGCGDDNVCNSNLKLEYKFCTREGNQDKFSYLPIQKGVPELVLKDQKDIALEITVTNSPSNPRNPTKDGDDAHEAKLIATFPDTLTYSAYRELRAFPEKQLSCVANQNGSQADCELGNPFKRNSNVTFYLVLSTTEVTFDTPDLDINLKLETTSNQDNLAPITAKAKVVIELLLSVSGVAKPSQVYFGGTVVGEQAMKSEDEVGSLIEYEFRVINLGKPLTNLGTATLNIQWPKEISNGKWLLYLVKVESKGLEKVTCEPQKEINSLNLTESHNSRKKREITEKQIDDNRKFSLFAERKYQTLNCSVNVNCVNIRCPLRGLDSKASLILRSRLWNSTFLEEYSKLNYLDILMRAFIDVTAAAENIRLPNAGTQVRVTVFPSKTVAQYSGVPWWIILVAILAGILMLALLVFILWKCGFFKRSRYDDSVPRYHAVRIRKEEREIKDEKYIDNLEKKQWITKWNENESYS
Chain of α6β1 integrin (P05556 21-798, chain 2 of 2, further chain): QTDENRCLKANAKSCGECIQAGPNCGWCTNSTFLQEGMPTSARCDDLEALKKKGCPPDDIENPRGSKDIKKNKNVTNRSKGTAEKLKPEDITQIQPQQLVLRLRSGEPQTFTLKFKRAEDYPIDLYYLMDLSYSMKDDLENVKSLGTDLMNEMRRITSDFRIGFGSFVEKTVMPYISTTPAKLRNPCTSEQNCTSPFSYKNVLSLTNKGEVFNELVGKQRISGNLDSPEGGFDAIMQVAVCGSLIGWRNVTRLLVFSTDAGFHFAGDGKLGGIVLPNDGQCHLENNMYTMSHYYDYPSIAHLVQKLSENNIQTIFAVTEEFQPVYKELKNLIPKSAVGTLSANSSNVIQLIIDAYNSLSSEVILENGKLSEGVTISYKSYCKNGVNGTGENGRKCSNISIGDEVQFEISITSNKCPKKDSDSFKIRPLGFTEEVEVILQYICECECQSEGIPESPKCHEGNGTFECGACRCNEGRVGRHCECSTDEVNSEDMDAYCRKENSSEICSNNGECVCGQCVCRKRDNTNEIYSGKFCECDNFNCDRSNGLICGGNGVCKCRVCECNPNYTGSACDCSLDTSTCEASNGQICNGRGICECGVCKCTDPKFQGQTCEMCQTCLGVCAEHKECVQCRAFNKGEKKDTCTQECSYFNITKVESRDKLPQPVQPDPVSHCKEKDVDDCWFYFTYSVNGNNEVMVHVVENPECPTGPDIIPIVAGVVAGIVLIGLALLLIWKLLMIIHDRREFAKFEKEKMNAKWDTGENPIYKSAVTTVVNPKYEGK
Chain of human α1β1 integrin (human) (P56199 29-1179, chain 1 of 2): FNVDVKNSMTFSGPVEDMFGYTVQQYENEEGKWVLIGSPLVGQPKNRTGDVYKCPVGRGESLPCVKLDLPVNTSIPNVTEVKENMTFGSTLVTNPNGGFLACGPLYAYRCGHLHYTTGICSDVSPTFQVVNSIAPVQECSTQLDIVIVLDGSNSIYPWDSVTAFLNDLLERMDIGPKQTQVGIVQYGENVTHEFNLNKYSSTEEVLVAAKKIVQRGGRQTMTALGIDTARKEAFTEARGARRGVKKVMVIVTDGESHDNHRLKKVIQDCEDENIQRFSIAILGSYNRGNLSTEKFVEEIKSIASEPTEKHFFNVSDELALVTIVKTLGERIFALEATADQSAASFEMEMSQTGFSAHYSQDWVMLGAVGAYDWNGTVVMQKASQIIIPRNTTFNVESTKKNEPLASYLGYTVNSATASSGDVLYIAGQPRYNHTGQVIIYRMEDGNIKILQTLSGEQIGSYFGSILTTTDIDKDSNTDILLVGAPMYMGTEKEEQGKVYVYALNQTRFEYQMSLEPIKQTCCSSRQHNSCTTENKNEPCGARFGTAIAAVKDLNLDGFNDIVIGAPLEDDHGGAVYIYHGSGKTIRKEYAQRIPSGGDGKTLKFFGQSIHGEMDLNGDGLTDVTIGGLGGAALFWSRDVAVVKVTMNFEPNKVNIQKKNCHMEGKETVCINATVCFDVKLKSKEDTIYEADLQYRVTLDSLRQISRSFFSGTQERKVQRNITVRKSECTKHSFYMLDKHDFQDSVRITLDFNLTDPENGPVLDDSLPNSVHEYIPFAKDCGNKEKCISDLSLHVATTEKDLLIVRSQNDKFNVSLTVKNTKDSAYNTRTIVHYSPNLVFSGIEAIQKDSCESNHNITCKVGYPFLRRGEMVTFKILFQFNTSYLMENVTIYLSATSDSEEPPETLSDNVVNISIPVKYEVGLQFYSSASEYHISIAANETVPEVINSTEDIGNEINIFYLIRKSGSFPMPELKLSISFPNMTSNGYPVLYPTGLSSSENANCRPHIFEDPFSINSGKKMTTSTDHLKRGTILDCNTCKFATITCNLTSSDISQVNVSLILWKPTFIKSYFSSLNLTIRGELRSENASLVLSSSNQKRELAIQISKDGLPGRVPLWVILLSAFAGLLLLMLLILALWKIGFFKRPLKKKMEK
Chain of human α1β1 integrin (human) (P05556 21-798, chain 2 of 2, further chain): as the sequence (P05556 21-798, chain 2 of 2, further chain) above

On to viperisrastatin (peptide), for which, in the experiment with α6β1 integrin, the IC50 is greater than 10 µM.
In the experiment with α6β1 integrin, “echistatin (from UniProt P17347 131-179) (peptide)” gave an IC50 greater than 10 µM.
On the same count and under the same terms, in the case of “eristostatin (from UniProt P0C6S4 1-49) (peptide)” it was greater than 10 µM; in that of obtustatin (peptide), greater than 10 µM.
The substance “Ethylpyridylated obtustatin (EP-obtustatin) (peptide)” had an IC50 in experiment [1] of 30 µM. In other words, the double-digit micromolar range.

The IC50 is the concentration needed to halve the response being measured. Read a low IC50 as inhibition by little substance.
